Biological target: the molecule itself
Assay: cross-linking + SEC; with 2.5-, 5- or 10-fold molar excess of the 22-peptide …; HtrA variants 10 μM monomer, 15 min 37°C then 10 h 4°C in 20 mM HEPES-NaOH pH 8.0, 100 mM NaCl; BS^3 0.45 mM, 30 min room temperature; Superose 12 10/300 GL, 25°C

B1: HtrA-S210A (oxidized control variant, as used in cross-linking and SEC) (enzyme, Escherichia coli, UniProt P0C0V0 27-474, looked up)
chain: AETSSATTAQQMPSLAPMLEKVMPSVVSINVEGSTTVNTPRMPRNFQQFFGDDSPFCQEGSPFQSSPFCQGGQGGNGGGQQQKFMALGSGVIIDADKGYVVTNNHVVDNATVIKVQLSDGRKFDAKMVGKDPRSDIALIQIQNPKNLTAIKMADSDALRVGDYTVAIGNPFGLGETVTSGIVSALGRSGLNAENYENFIQTDAAINRGNAGGALVNLNGELIGINTAILAPDGGNIGIGFAIPSNMVKNLTSQMVEYGQVKRGELGIMGTELNSELAKAMKVDAQRGAFVSQVLPNSSAAKAGIKAGDVITSLNGKPISSFAALRAQVGTMPVGSKLTLGLLRDGKQVNVNLELQQSSQNQVDSSSIFNGIEGAEMSNKGKDQGVVVNNVKTGTPAAQIGLKKGDVIIGANQQAVKNIAELRKVLDSKPSVLALNIQRGDSTIYLLMQ
modifications: disulfide bond Cys57-Cys69 (oxidized)
notes: HtrA (DegP) serine protease, Escherichia coli; polypeptide chain of 448 residues as printed; also called oxidized control (S210A); control HtrA
**Q.** With B1 as the protein, how does the “stoichiometry N” value read?
**A.** 12
